The values that follow come from publication PMC6009577.

As usually defined, the stoichiometry N is a count of units in the complex or per binding partner.

For the experiment, the target named is G4-P351A fragment of DGCR8 (proline at 351 to alanine) (human) (UniProt Q8WYQ5). As to the kind of experiment: SEC. In general terms: SEC sorts molecules by how far they enter the pores of the column.

As for “G4-P351A fragment of DGCR8 (proline at 351 to alanine) (from UniProt Q8WYQ5 1-773) (domain or fragment)”, the stoichiometry N was 2.
